Measurements: US20080161236 (published 2008)

Key:
[1] = biological target: Botulinum neurotoxin serotype A light chain (50 kD zinc endopeptidase) (Clostridium botulinum, UniProt P0DPI1 P0DPI1:2-448)
[2] = biological target: Botulinum neurotoxin serotype B holotoxin (Clostridium botulinum, UniProt B1INP5;B1INP5 B1INP5:2-441,B1INP5:442-1291)
[3] = biological target: Botulinum neurotoxin serotype B light chain (Clostridium botulinum, UniProt B1INP5 B1INP5:2-441)
[4] = biological target: Botulinum neurotoxin serotype A holotoxin (Clostridium botulinum, UniProt P0DPI1;P0DPI1 P0DPI1:2-448,P0DPI1:449-1296)
Botulinum neurotoxin serotype A holotoxin, sequence (P0DPI1 2-448, chain 1 of 2): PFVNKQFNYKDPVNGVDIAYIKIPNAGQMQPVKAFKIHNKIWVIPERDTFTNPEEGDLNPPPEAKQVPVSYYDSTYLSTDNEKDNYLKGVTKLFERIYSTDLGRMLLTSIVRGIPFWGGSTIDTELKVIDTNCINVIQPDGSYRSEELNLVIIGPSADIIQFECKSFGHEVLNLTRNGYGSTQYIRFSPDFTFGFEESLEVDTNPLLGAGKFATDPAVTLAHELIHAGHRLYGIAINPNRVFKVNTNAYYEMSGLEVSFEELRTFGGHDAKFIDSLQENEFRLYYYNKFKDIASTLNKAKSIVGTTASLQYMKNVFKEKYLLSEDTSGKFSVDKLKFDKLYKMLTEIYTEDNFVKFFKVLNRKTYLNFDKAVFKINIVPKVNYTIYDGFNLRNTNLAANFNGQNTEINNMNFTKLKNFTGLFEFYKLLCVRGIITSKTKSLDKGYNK
Botulinum neurotoxin serotype A holotoxin, sequence (P0DPI1 449-1296, chain 2 of 2): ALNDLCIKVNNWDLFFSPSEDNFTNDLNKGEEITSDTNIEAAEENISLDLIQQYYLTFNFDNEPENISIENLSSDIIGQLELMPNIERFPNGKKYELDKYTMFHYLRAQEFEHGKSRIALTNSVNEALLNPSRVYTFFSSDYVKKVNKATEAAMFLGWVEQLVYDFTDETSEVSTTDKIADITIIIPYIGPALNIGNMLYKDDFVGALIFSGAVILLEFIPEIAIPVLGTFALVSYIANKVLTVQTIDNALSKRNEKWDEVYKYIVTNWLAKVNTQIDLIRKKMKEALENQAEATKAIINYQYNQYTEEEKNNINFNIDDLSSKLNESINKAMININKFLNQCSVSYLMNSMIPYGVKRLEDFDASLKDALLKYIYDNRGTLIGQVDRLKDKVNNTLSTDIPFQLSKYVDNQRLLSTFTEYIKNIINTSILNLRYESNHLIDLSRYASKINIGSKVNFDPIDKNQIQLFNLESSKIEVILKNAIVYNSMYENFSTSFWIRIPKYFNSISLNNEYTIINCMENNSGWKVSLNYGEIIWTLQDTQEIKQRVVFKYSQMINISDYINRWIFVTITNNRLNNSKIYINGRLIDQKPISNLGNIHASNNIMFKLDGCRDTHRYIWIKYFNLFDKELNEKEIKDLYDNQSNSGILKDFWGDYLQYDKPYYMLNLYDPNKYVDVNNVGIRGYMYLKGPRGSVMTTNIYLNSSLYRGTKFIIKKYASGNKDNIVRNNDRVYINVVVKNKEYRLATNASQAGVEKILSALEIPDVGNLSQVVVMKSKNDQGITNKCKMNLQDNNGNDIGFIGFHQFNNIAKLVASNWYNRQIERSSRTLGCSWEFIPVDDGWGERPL

Measured: binding result

Botulinum neurotoxin serotype B light chain, sequence (B1INP5 2-441, one chain of several): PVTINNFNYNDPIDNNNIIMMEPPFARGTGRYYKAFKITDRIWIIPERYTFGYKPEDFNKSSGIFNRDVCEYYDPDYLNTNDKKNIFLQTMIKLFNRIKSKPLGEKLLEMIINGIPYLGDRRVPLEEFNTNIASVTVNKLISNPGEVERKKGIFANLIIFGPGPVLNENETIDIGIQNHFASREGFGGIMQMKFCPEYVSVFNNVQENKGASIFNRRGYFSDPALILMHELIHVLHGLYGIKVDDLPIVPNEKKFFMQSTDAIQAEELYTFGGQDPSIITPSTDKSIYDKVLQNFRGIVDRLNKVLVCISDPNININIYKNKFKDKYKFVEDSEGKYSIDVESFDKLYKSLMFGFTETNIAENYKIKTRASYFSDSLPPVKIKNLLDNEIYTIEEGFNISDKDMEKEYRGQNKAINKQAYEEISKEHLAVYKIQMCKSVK
Botulinum neurotoxin serotype B holotoxin, sequence (B1INP5 2-441, chain 1 of 2): as the sequence (B1INP5 2-441, one chain of several) above
Botulinum neurotoxin serotype B holotoxin, sequence (B1INP5 442-1291, chain 2 of 2): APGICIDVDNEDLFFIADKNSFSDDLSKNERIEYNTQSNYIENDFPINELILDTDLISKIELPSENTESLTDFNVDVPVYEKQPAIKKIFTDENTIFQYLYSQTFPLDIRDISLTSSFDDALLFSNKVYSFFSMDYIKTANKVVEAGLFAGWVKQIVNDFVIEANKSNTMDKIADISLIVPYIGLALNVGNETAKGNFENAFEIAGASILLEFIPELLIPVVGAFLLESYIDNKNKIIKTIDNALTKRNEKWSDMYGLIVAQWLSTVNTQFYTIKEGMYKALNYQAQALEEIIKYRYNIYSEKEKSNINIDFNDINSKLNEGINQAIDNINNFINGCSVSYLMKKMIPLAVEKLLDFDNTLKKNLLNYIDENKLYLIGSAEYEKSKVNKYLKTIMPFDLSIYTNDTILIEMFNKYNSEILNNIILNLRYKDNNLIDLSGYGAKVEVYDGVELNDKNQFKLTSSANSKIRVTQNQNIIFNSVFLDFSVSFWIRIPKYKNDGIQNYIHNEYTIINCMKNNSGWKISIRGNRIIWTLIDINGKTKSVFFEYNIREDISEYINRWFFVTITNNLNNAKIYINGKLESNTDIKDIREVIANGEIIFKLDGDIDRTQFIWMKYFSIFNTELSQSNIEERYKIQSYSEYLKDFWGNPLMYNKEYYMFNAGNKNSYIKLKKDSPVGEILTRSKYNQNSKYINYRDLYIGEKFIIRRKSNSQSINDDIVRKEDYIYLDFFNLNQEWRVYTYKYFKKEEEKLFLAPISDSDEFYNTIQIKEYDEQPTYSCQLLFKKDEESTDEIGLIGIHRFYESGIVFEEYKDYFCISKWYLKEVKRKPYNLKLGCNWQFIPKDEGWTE
Botulinum neurotoxin serotype A light chain (50 kD zinc endopeptidase), sequence (P0DPI1 2-448, one chain of several): as the sequence (P0DPI1 2-448, chain 1 of 2) above

B1: BoNT A/B LC aptamer (ssDNA)
DNA: CATCCGTCACACCTGCTCTGATCAGGGAAGACGCCAACACTGGTGTTGGCTCCCGTATCA
binds: all assays above

B2: BoNT A/B HT aptamer (ssDNA)
DNA: CATCCGTCACACCTGCTCTGCTATCACATGCCTGCTGAAGTGGTGTTGGCTCCCGTATCA
binds: [1] | [2] | [3]
